We go through 36 sequences from the supplement of paper PMC10567573.

A short description of this data set: protein stability index of a GFP-peptide fusion (GPS, HEK-293T) (PSI 1-6); higher = more stable. The settings on record: c terminus: a fixed tail appended.

± gives the standard deviation.
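Note: 24-mer peptide tiles fused after GFP, lentivirally expressed, FACS-sorted into six equal bins by GFP/DsRed ratio, decoded by Illumina sequencing, PSI is the read-weighted mean bin number.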

LQSLRPHDEDIKTTNVKSASRQKT [ZNF396]: the protein stability index amounted to 5.14 ± 0.089 (treatment: DMSO) and 5.04 ± 0.28 (treatment: MLN4924 1 uM, 8 h).
For KLERIARLEDKVKTLKAENAGLSS [JUNB] the same measures were 3.85 ± 0.34 and 3.97 ± 0.22.
For AKVKGEKLDKKLKKMEQNKTAATR [ATF4] the same measures were 4.88 ± 0.39 and 4.85 ± 0.16.
Consider ADDHRYKFADNKWSVTGKAEPAMP [TBX5], for which the protein stability index is 4.04 ± 0.17 (treatment: DMSO) and 4.2 ± 0.15 (treatment: MLN4924 1 uM, 8 h).
On to SRMKERAIDLNKKGKDNKHPMYRR [ZMYND11], for which the protein stability index amounted to 4.12 ± 0.2 (treatment: DMSO) and 4.08 ± 0.46 (treatment: MLN4924 1 uM, 8 h).
Take PYSFIEFDTFIQKTKKLYIDSRAR [SEC22B]: the protein stability index was 2.38 ± 0.12 (treatment: DMSO) and 2.41 ± 0.25 (treatment: MLN4924 1 uM, 8 h).
For the sequence HQGIKPYKCSWCGKSFSQNTNLHT [ZNF75A], the protein stability index by setting is: (treatment: DMSO) 2.1 ± 0.002; (treatment: MLN4924 1 uM, 8 h) 2.52 ± 0.25.
For the sequence AIALANSDSMHIEDVEAVQKLQDV [ESRRG], the protein stability index reads like this: (treatment: DMSO) 4.53 ± 0.092; (treatment: MLN4924 1 uM, 8 h) 4.66 ± 0.15.
PVTKPLFPSAGQAQAAVQGPVGTD [ZNF207]: the protein stability index by setting is: (treatment: DMSO) 5.15 ± 0.17; (treatment: MLN4924 1 uM, 8 h) 5.05 ± 0.11.
With TPLLIAARYGHLDVVEYLVDRCGA [FEM1A], the protein stability index amounted to 2.05 ± 0.27 (treatment: DMSO) and 2.18 ± 0.15 (treatment: MLN4924 1 uM, 8 h).
On to GQENDATSPHFSTRHEGSFQVPVL [CD69], for which the protein stability index reads like this: (treatment: DMSO) 3.68 ± 0.35; (treatment: MLN4924 1 uM, 8 h) 3.69 ± 0.14.
Turning to HCHIEESEHVLKKAHKYSELIILY [VPS39], the protein stability index (treatment: DMSO) was found to be 2.21 ± 0.33 and the protein stability index (treatment: MLN4924 1 uM, 8 h) amounted to 2.12 ± 0.3.
For the sequence IAGDEGTQIPADEDTQTDADSSAQ [TAF7L], the protein stability index runs as follows: (treatment: DMSO) 5.58 ± 0.27; (treatment: MLN4924 1 uM, 8 h) 5.45 ± 0.31.
Take TAPLYKDEKEQLIIPQVPLFNILA [USP39]: the protein stability index turned out to be 2.15 ± 0.13 (treatment: DMSO) and 2.09 ± 0.39 (treatment: MLN4924 1 uM, 8 h).
LKKGSKEKQADFLDKQMSRDEHRA [NFE2L1]: the protein stability index (treatment: DMSO) stood at 5 ± 0.39 and the protein stability index (treatment: MLN4924 1 uM, 8 h) was 5.08 ± 0.32.
For RVTVSRASSSRSVRTTRGKRKRVD [LMNB1], the protein stability index is, setting by setting: (treatment: DMSO) 4.46 ± 0.2; (treatment: MLN4924 1 uM, 8 h) 4.34 ± 0.1.
On the same counts, the results for YIPRDVDETGITVASLERFSTYTS [ZC3H15] are 2.65 ± 0.16 and 2.96 ± 0.16.
As to FGERRIPRGRRISVICRSLPEGMG [ALKBH7], the protein stability index reads like this: (treatment: DMSO) 2.82 ± 0.29; (treatment: MLN4924 1 uM, 8 h) 2.87 ± 0.26.
Sequence CKESSPMPVICGPEENYPSLQMSS [NANOGP8] had a protein stability index (treatment: DMSO) of 3.65 ± 0.27 and a protein stability index (treatment: MLN4924 1 uM, 8 h) of 3.74 ± 0.25.
For LEPSTPYRFLLYGLHEGKRLGPLS [TNXB] the same measures were 2.44 ± 0.3 and 2.46 ± 0.15.
For MAGLSKEPNTLRAPRVRTAFTMEQ [VENTX] the same measures were 3.54 ± 0.28 and 3.75 ± 0.22.
Take MSSHLVEPPPPLHNNNNNCEENEQ [BNIP3L]: the protein stability index turned out to be 5.56 ± 0.11 (treatment: DMSO) and 5.67 ± 0.11 (treatment: MLN4924 1 uM, 8 h).
TLLKKISEASKAFQMEKIEHGYEN [TRIM55]: the protein stability index is, setting by setting: (treatment: DMSO) 2.3 ± 0.26; (treatment: MLN4924 1 uM, 8 h) 2.4 ± 0.15.
Regarding KELADFIRERATIEETYSKAMAKL [FCHO1], the protein stability index (treatment: DMSO) came to 3.16 ± 0.21 and the protein stability index (treatment: MLN4924 1 uM, 8 h) turned out to be 3.31 ± 0.29.
For AESKGTGREKPGPLDFEAYSAAAL [FCHO1], the protein stability index is, setting by setting: (treatment: DMSO) 4.8 ± 0.12; (treatment: MLN4924 1 uM, 8 h) 5.04 ± 0.22.
For the sequence DPKKLLTQYFVQENYLEYRQVPGS [MAGEA6], the protein stability index is, setting by setting: (treatment: DMSO) 3.12 ± 0.1; (treatment: MLN4924 1 uM, 8 h) 3 ± 0.39.
On the same counts, the results for YSLTTSSTHKRSSLRKVKLVRPPQ [RAB40B] are 3.42 ± 0.24 and 3.63 ± 0.32.
AQLYTLWVTFQVLLYTSLPDFCHK [DHCR7]: the protein stability index reads like this: (treatment: DMSO) 2.88 ± 0.13; (treatment: MLN4924 1 uM, 8 h) 3.13 ± 0.18.
As to ATQSHSISSSSFGAEPSAPGGGGS [RTN3], the protein stability index runs as follows: (treatment: DMSO) 5.19 ± 0.23; (treatment: MLN4924 1 uM, 8 h) 5.19 ± 0.093.
Take KALGSDLDSSLASLVGNLGISGTT [SNAP91]: the protein stability index runs as follows: (treatment: DMSO) 3.94 ± 0.2; (treatment: MLN4924 1 uM, 8 h) 3.93 ± 0.15.
The sequence HQTQLLYQASAMMVESRYALLIVD [RAD51] showed a protein stability index (treatment: DMSO) of 3.17 ± 0.74 and a protein stability index (treatment: MLN4924 1 uM, 8 h) of 2.8 ± 0.66.
For the sequence ELIDNLKEAQYIRTELVEQAFRAI [PCMTD2], the protein stability index reads like this: (treatment: DMSO) 2.54 ± 0.32; (treatment: MLN4924 1 uM, 8 h) 2.29 ± 0.44.
For DICLAQLEELGTLNVFQTVSRMRT [PTPN9] the same measures were 2.97 ± 0.22 and 2.79 ± 0.33.
In the case of AMETDGPLFEDVQMLRKTVKDEAH [PPP2R5C], the protein stability index is, setting by setting: (treatment: DMSO) 5.24 ± 0.49; (treatment: MLN4924 1 uM, 8 h) 5.12 ± 0.39.
WILLAESNSADDETDDPRRYQKYG [OAS1] returned a protein stability index (treatment: DMSO) of 3.19 ± 0.17 and a protein stability index (treatment: MLN4924 1 uM, 8 h) of 3.32 ± 0.21.
On the same counts, the results for LFIILQVGLNTIADLWYLFGDLSL [POMT2] are 3.06 ± 0.84 and 3.17 ± 0.064.
